Laboratory results: PMC4864540, “Isolation and Characterization of a Broad Spectrum Bacteriocin from Bacillus amyloliquefaciens RX7” (BioMed Research International, 2016)

Experiments:
[1] = target: T1, pepsin (Sus scrofa, UniProt P00791); assay: Effect of enzyme treatment on antimicrobial activity; assay type: in vitro ADME; conditions: Pepsin 10 mg/mL, 37°C, 2 h, then boiled 2 min; residual antimicrobial activity vs before treatment, against L. monocytogenes ATCC 19114
T1 construct: purchased Sigma (USA) and Takara (Japan)
T1 sequence (P00791 60-385): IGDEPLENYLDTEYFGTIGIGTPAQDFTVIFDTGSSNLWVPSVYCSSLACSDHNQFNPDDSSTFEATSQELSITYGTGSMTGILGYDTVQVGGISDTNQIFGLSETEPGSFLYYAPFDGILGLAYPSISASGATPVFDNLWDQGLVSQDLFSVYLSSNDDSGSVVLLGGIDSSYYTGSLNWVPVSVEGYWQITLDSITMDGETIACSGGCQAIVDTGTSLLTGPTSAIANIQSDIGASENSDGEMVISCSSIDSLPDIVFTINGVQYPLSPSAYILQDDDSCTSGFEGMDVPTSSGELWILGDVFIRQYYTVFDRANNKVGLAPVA
Method: (§1) To evaluate pH stability, the pH of crude bacteriocin solution was adjusted with 1 N HCl and 1 N NaOH and readjusted to pH 7 after incubation for 2 h at 37°C. To evaluate thermal stability, the crude bacteriocin solution was incubated at 4, 37, 50, 80, and 100°C for 15–30 minutes. All samples were cooled to room temperature before activity assays. To analyze sensitivity to various enzymes, the crude bacteriocin solution was treated at 37°C for 2 h with 10 mg/mL (final concentration) of the following enzymes: α-amylase, α-chymotrypsin, lipase, proteinase-K, pepsin, or trypsin. All enzymes used were from Sigma (USA) and Takara (Japan). The samples were then boiled for 2 min to denature the enzymes and cooled to room temperature. Samples were exposed to various organic solvents at a final concentration of 10% (v/v) to explore their effects on bacteriocin activity. After incubation for 2 h at 37°C, the residual activity was recorded. All treated samples were tested for residual activity against L. monocytogenes ATCC 19114, as described above.

[2] = system: trypsin; assay: as above; assay type: in vitro ADME; conditions: Trypsin 10 mg/mL, 37°C, 2 h, then boiled 2 min; residual antimicrobial activity vs before treatment, against L. monocytogenes ATCC 19114
Method: as §1

[3] = system: lipase; assay: as above; assay type: in vitro ADME; conditions: Lipase 10 mg/mL, 37°C, 2 h, then boiled 2 min; residual antimicrobial activity vs before treatment, against L. monocytogenes ATCC 19114
Method: as §1

[4] = system: α-amylase; assay: as above; assay type: in vitro ADME; conditions: α-Amylase 10 mg/mL, 37°C, 2 h, then boiled 2 min; residual antimicrobial activity vs before treatment, against L. monocytogenes ATCC 19114
Method: as §1

[5] = target: T2, α-chymotrypsin (Bos taurus, UniProt P00766); assay: as above; assay type: in vitro ADME; conditions: α-Chymotrypsin 10 mg/mL, 37°C, 2 h, then boiled 2 min; residual antimicrobial activity vs before treatment, against L. monocytogenes ATCC 19114
T2 construct: purchased Sigma (USA) and Takara (Japan)
Method: as §1

[6] = target: T3, proteinase-K (Parengyodontium album, UniProt P06873); assay: as above; assay type: in vitro ADME; conditions: Proteinase-K 10 mg/mL, 37°C, 2 h, then boiled 2 min; residual antimicrobial activity vs before treatment, against L. monocytogenes ATCC 19114
T3 construct: purchased Sigma (USA) and Takara (Japan)
T3 sequence (P06873 106-384): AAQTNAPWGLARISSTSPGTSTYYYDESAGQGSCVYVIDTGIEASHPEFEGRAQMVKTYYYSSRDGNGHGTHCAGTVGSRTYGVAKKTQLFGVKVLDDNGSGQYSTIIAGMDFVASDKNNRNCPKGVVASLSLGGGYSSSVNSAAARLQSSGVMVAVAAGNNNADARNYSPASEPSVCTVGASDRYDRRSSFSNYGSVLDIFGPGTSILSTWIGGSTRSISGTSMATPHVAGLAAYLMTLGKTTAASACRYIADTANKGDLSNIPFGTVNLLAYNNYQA
Method: as §1

[7] = system: L. monocytogenes ATCC 19114; assay: Mode of action, time-kill study (viable cell count); assay type: cell-based, Listeria monocytogenes; conditions: 80 AU/mL added to L. monocytogenes at 4.2 × 10^8 CFU/mL, mid-exponential phase, viable counts at 1-hour intervals, mean of three experiments
Method: To determine the mode of action of the bacteriocin, the crude bacteriocin was added at a final concentration of 80 AU/mL to the culture at the mid-exponential growth phase of L. monocytogenes ATCC 19114 in 20 mL of TSB medium. Viable cells were counted at 1-hour intervals for the next 8 hours. Viable cell counting was repeated in triplicate and the mean values were calculated.

[8] = system: L. monocytogenes ATCC 19114; assay: Effect of organic solvents on antimicrobial activity; assay type: physicochemical, Listeria monocytogenes; conditions: 2 h at 37°C, residual activity against L. monocytogenes ATCC 19114
Method: as §1

[9] = system: Streptococcus agalactiae ATCC 13813; assay: Agar well diffusion assay; assay type: cell-based; conditions: cell-free supernatant, medium TSB
Method: (§2) Soil samples were collected from a farm in Cheonan city, Korea. They were mixed with sterile water (1 : 10, w/v), homogenized, and heated at 50°C for 60 min in a water bath. One mL of this suspension was inoculated into 100 mL of tryptic soy broth (Difco, USA) and incubated at 50°C for 24 h, after which microbial growth was monitored based on changes in turbidity of the cultures. Aliquots of the cultures were inoculated onto TSB plates, incubated at 30°C, and single colonies were isolated and screened for antimicrobial activity. The antimicrobial activity was performed according to Ramachandran et al. with modifications. It was expressed as the diameter of the inhibition zones around the wells using agar well diffusion assays with Listeria monocytogenes ATCC 19114 as the indicator strain.
(§3) Antimicrobial activity was detected using the agar well diffusion assay and tested against all indicator strains (Table 1) grown in their respective media, as indicated (Difco, USA). An aliquot of culture was centrifugated at 6,000 g for 15 min at 4°C (Mega 21R, Hanil Co., Republic of Korea), filtered using 0.45 μm pore-size cellulose acetate syringe filters (Advantec Co., Japan) to remove cells, then applied to wells on agar plates. Experiments were done in no less than five individual trials having no less than three replications.
(§4) The plates were incubated at the optimal temperature of the test organism. The bacteriocin titer was determined using the serial twofold dilution method. Activity was defined as the reciprocal of the dilution after the last serial dilution giving a zone of inhibition and was expressed as activity units (AU) per milliliter. All measurements were done in triplicate and the means are shown as the results.

[10] = system: Salmonella gallinarum KVCC-BA0700722; assay: Agar well diffusion assay; assay type: cell-based; conditions: cell-free supernatant, medium NB
Method: as §2, §3, §4

[11] = system: Salmonella typhimurium KCCM 40253; assay: Agar well diffusion assay; assay type: cell-based; conditions: cell-free supernatant, medium NB
Method: as §2, §3, §4

[12] = system: Lactobacillus johnsonii PF01 (our isolate); assay: Agar well diffusion assay; assay type: cell-based; conditions: cell-free supernatant, medium MRS
Method: as §2, §3, §4

[13] = system: Salmonella pullorum KVCC-BA0702509; assay: Agar well diffusion assay; assay type: cell-based; conditions: cell-free supernatant, medium NB
Method: as §2, §3, §4

[14] = system: Lactobacillus acidophilus KCCM 32820; assay: Agar well diffusion assay; assay type: cell-based; conditions: cell-free supernatant, medium MRS
Method: as §2, §3, §4

[15] = system: Pseudomonas aeruginosa CCARM 2003; assay: Agar well diffusion assay; assay type: cell-based; conditions: cell-free supernatant, medium LB
Method: as §2, §3, §4

[16] = system: Salmonella enteritidis KCCM 12021; assay: Agar well diffusion assay; assay type: cell-based; conditions: cell-free supernatant, medium NB
Method: as §2, §3, §4

[17] = system: Staphylococcus aureus KFRI 00188; assay: Agar well diffusion assay; assay type: cell-based; conditions: cell-free supernatant, medium NB
Method: as §2, §3, §4

[18] = system: Lactobacillus plantarum KCCM 11322; assay: Agar well diffusion assay; assay type: cell-based; conditions: cell-free supernatant, medium MRS
Method: as §2, §3, §4

[19] = system: Staphylococcus aureus subsp. aureus (MRSA) KCCM 40510; assay: Agar well diffusion assay; assay type: cell-based; conditions: cell-free supernatant, medium NB
Method: as §2, §3, §4

[20] = system: Listeria monocytogenes ATCC 19114; assay: Agar well diffusion assay; assay type: cell-based; conditions: cell-free supernatant, medium TSB
Method: as §2, §3, §4

[21] = system: Streptococcus mutans ATCC 25175; assay: Agar well diffusion assay; assay type: cell-based; conditions: cell-free supernatant, medium BHI
Method: as §2, §3, §4

[22] = system: Salmonella enteritidis KVCC-BA0700654; assay: Agar well diffusion assay; assay type: cell-based; conditions: cell-free supernatant, medium NB
Method: as §2, §3, §4

[23] = system: Klebsiella pneumoniae subsp. pneumoniae KCCM 11418; assay: Agar well diffusion assay; assay type: cell-based; conditions: cell-free supernatant, medium NB
Method: as §2, §3, §4

[24] = system: Shigella flexneri KCCM 40414; assay: Agar well diffusion assay; assay type: cell-based; conditions: cell-free supernatant, medium NB
Method: as §2, §3, §4

[25] = system: Candida albicans KCTC 7122; assay: Agar well diffusion assay; assay type: cell-based; conditions: cell-free supernatant, medium PDA
Method: as §2, §3, §4

[26] = system: Pseudomonas aeruginosa KCCM 11266; assay: Agar well diffusion assay; assay type: cell-based; conditions: cell-free supernatant, medium NB
Method: as §2, §3, §4

[27] = system: Lactobacillus salivarius CPM7 (our isolate); assay: Agar well diffusion assay; assay type: cell-based; conditions: cell-free supernatant, medium MRS
Method: as §2, §3, §4

[28] = system: Bacillus cereus KCTC 1661; assay: Agar well diffusion assay; assay type: cell-based; conditions: cell-free supernatant, medium LB
Method: as §2, §3, §4

[29] = system: Lactobacillus delbrueckii KCCM 11357; assay: Agar well diffusion assay; assay type: cell-based; conditions: cell-free supernatant, medium MRS
Method: as §2, §3, §4

[30] = system: Bacillus licheniformis KCCM 12145; assay: Agar well diffusion assay; assay type: cell-based; conditions: cell-free supernatant, medium NB
Method: as §2, §3, §4

[31] = system: Enterococcus faecalis (VRE) CCARM 0011; assay: Agar well diffusion assay; assay type: cell-based; conditions: cell-free supernatant, medium NB
Method: as §2, §3, §4

[32] = system: Escherichia coli K88; assay: Agar well diffusion assay; assay type: cell-based; conditions: cell-free supernatant, medium LB
Method: as §2, §3, §4

[33] = system: L. monocytogenes ATCC 19114; assay: Thermal stability of antimicrobial activity; assay type: physicochemical, Listeria monocytogenes; conditions: cooled to room temperature, residual activity vs before treatment, against L. monocytogenes ATCC 19114
Method: as §1

[34] = system: L. monocytogenes ATCC 19114; assay: pH stability of antimicrobial activity; assay type: physicochemical, Listeria monocytogenes; conditions: for Residual activity (%): 2 h at 37°C, residual activity against L. monocytogenes ATCC 19114
Method: as §1

## NH2-X-Ala-Trp-Tyr-Asp-Ile-Arg-Lys-Leu-Gly-Asn-Lys-Gly-Ala [RX7 bacteriocin, Bacteriocin of approximately 5 kDa produced by Bacillus amyloliquefaciens RX7; homologous to lantibiotic haloduracin A1]
[1]
  Residual activity (%): 100%
[2]
  Residual activity (%): 0%
[3]
  Residual activity (%): 100%
[4]
  Residual activity (%): 100%
[5]
  Residual activity (%): 0%
[6]
  Residual activity (%): 0%
[7]
  incubation time for complete bactericidal action (no colony formation on TSB agar): 2 h
[8]; Acetone 10% (v/v)
  Residual activity (%): 90%
[8]; Acetonitrile 10% (v/v)
  Residual activity (%): 90%
[8]; Butanol 10% (v/v)
  Residual activity (%): 80%
[8]; Chloroform 10% (v/v)
  Residual activity (%): 80%
[8]; Ethanol 10% (v/v)
  Residual activity (%): 90%
[8]; Methanol 10% (v/v)
  Residual activity (%): 80%
[9]
  Inhibition zone (mm): ++ (less than 20 mm)
[10]
  Inhibition zone (mm): ++ (less than 20 mm)
[11]
  Inhibition zone (mm): ++ (less than 20 mm)
[12]
  Inhibition zone (mm): + (less than 10 mm)
[13]
  Inhibition zone (mm): + (less than 10 mm)
[14]
  Inhibition zone (mm): + (less than 10 mm)
[15]
  Inhibition zone (mm): ++ (less than 20 mm)
[16]
  Inhibition zone (mm): ++ (less than 20 mm)
[17]
  Inhibition zone (mm): ++ (less than 20 mm)
[18]
  Inhibition zone (mm): + (less than 10 mm)
[19]
  Inhibition zone (mm): + (less than 10 mm)
[20]
  Inhibition zone (mm): +++ (less than 30 mm)
[21]
  Inhibition zone (mm): + (less than 10 mm)
[22]
  Inhibition zone (mm): ++ (less than 20 mm)
[23]
  Inhibition zone (mm): + (less than 10 mm)
[24]
  Inhibition zone (mm): ++ (less than 20 mm)
[25]
  Inhibition zone (mm): ++ (less than 20 mm)
[26]
  Inhibition zone (mm): ++ (less than 20 mm)
[27]
  Inhibition zone (mm): + (less than 10 mm)
[28]
  Inhibition zone (mm): ++ (less than 20 mm)
[29]
  Inhibition zone (mm): + (less than 10 mm)
[30]
  Inhibition zone (mm): ++ (less than 20 mm)
[31]
  Inhibition zone (mm): ++ (less than 20 mm)
[32]
  Inhibition zone (mm): ++ (less than 20 mm)
[33]; heat 4°C/30 min
  Residual activity (%): 100%
[33]; heat 37°C/30 min
  Residual activity (%): 100%
[33]; heat 50°C/30 min
  Residual activity (%): 100%
[33]; heat 80°C/30 min
  Residual activity (%): 100%
[33]; heat 100°C/30 min
  Residual activity (%): 80%
[33]; heat 121°C/15 min
  Residual activity (%): 20%
[34]; 2 h at 37°C at the given pH, readjusted to pH 7, activity against L. monocytogenes ATCC 19114
  pH range in which full activity was observed: 3–8
[34]; pH 1 (1 N HCl/1 N NaOH), readjusted to pH 7
  Residual activity (%): 80%
[34]; pH 2 (1 N HCl/1 N NaOH), readjusted to pH 7
  Residual activity (%): 90%
[34]; pH 3 (1 N HCl/1 N NaOH), readjusted to pH 7
  Residual activity (%): 100%
[34]; pH 4 (1 N HCl/1 N NaOH), readjusted to pH 7
  Residual activity (%): 100%
[34]; pH 5 (1 N HCl/1 N NaOH), readjusted to pH 7
  Residual activity (%): 100%
[34]; pH 6 (1 N HCl/1 N NaOH), readjusted to pH 7
  Residual activity (%): 100%
[34]; pH 7 (1 N HCl/1 N NaOH)
  Residual activity (%): 100%
[34]; pH 8 (1 N HCl/1 N NaOH), readjusted to pH 7
  Residual activity (%): 100%
[34]; pH 9 (1 N HCl/1 N NaOH), readjusted to pH 7
  Residual activity (%): 90%
[34]; pH 10 (1 N HCl/1 N NaOH), readjusted to pH 7
  Residual activity (%): 80%
